Test results reported in patent US20220213456.

Tested on: T1, OMNI-47 (Peptoniphilus obesi ph1)
T1 sequence: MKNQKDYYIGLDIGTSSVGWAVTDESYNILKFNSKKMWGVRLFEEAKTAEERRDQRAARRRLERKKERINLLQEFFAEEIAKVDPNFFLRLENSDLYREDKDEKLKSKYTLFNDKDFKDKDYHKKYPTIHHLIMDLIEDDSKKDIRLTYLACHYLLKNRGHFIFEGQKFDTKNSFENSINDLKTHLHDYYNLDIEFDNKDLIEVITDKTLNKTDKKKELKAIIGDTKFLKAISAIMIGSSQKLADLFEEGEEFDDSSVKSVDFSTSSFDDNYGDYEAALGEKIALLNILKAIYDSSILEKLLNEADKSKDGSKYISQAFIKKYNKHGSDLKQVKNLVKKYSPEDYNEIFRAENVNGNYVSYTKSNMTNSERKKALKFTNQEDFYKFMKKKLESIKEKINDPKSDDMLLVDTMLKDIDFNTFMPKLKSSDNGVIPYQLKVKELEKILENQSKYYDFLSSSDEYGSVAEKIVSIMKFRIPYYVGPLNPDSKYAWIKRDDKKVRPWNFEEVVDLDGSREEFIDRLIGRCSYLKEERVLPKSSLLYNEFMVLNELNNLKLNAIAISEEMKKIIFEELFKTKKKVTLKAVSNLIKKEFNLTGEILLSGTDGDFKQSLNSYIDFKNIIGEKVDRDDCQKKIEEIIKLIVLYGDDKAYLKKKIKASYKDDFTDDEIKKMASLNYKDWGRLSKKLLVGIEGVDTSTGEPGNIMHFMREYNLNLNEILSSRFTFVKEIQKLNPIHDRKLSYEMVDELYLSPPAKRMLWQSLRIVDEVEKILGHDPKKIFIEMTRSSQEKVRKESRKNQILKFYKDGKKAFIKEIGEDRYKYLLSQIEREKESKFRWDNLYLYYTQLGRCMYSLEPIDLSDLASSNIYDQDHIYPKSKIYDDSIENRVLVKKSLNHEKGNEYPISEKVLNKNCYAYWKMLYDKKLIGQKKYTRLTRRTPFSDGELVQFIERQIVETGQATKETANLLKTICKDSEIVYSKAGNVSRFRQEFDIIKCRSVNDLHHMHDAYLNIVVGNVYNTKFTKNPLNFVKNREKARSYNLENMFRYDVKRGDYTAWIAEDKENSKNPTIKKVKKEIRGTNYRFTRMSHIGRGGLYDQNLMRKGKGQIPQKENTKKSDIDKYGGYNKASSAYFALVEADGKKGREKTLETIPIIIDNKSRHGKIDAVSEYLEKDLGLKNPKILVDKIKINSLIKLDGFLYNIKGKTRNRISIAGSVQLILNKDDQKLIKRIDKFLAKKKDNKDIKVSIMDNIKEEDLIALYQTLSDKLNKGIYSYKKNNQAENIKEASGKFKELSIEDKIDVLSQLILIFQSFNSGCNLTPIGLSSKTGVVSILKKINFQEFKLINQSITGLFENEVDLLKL
Experiment: cleavage_in_vitro
Details: TXTL; PAM NVYR (specific NRTA); V1, V2 tested

GGAAGAGCAGAGCCUUGGUCUCGUUUGAGAGUUAUGGAAACAUGAUGAGUUCAAAUAAAAAUUUAUUCAAAUCGCCCAUUAUGGGCCGCAGAUGUUCUGCAUUAUAUGCUUGCAAGUUGCAAGCUUUUUUU / GGAAGAGCAGAGCCTTGGTCTCNNNNNNNN / NNNNNNNNGAGACCAAGGCTCTGCTCTTCC [OMNI-47 T2 sgRNA V1 ; pbPOS T2 protospacer 8N PAM library]
activity (1-depletion score): 0.98
